B1: Integrin alpha-L (Homo sapiens), P20701 (parent)
chain: MKDSCITVMAMALLSGFFFFAPASSYNLDVRGARSFSPPRAGRHFGYRVLQVGNGVIVGAPGEGNSTGSLYQCQSGTGHCLPVTLRGSNYTSKYLGMTLATDPTDGSILACDPGLSRTCDQNTYLSGLCYLFRQNLQGPMLQGRPGFQECIKGNVDLVFLFDGSMSLQPDEFQKILDFMKDVMKKLSNTSYQFAAVQFSTSYKTEFDFSDYVKRKDPDALLKHVKHMLLLTNTFGAINYVATEVFREELGARPDATKVLIIITDGEATDSGNIDAAKDIIRYIIGIGKHFQTKESQETLHKFASKPASEFVKILDTFEKLKDLFTELQKKIYVIEGTSKQDLTSFNMELSSSGISADLSRGHAVVGAVGAKDWAGGFLDLKADLQDDTFIGNEPLTPEVRAGYLGYTVTWLPSRQKTSLLASGAPRYQHMGRVLLFQEPQGGGHWSQVQTIHGTQIGSYFGGELCGVDVDQDGETELLLIGAPLFYGEQRGGRVFIYQRRQLGFEEVSELQGDPGYPLGRFGEAITALTDINGDGLVDVAVGAPLEEQGAVYIFNGRHGGLSPQPSQRIEGTQVLSGIQWFGRSIHGVKDLEGDGLADVAVGAESQMIVLSSRPVVDMVTLMSFSPAEIPVHEVECSYSTSNKMKEGVNITICFQIKSLIPQFQGRLVANLTYTLQLDGHRTRRRGLFPGGRHELRRNIAVTTSMSCTDFSFHFPVCVQDLISPINVSLNFSLWEEEGTPRDQRAQGKDIPPILRPSLHSETWEIPFEKNCGEDKKCEANLRVSFSPARSRALRLTAFASLSVELSLSNLEEDAYWVQLDLHFPPGLSFRKVEMLKPHSQIPVSCEELPEESRLLSRALSCNVSSPIFKAGHSVALQMMFNTLVNSSWGDSVELHANVTCNNEDSDLLEDNSATTIIPILYPINILIQDQEDSTLYVSFTPKGPKIHQVKHMYQVRIQPSIHDHNIPTLEAVVGVPQPPSEGPITHQWSVQMEPPVPCHYEDLERLPDAAEPCLPGALFRCPVVFRQEILVQVIGTLELVGEIEASSMFSLCSSLSISFNSSKHFHLYGSNASLAQVVMKVDVVYEKQMLYLYVLSGIGGLLLLLLIFIVLYKVGFFKRNLKEKMEAGRGVPNGIPAEDSEQLASGQEAGDPGCLKPLHEKDSESGGGKD
partner: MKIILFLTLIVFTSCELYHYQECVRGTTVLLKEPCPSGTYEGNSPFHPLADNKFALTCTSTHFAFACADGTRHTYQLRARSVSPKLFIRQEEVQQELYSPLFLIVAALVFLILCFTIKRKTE

Variants of: B1
Settings: with ns7a_sars ns7a

Row | Variant | effect of a mutation on the interaction
1 | K288C;K293C | increasing interaction strength

Source: IntAct's records for PubMed 18020948
